Laboratory results as given in patent US9845340B2, “Peptides that specifically bind HGF receptor (cMet) and uses thereof” (Dyax Corp., priority 2003, dated 2017).

Key:
[1] = molecular target: T1, 3T3 cells that over-express human cMet (Homo sapiens, UniProt P08581); experiment: Whole cell ELISA of peptide-displaying phage; type: cell-based; settings: phage isolate; 3T3 cells expressing human cMet vs. non-expressing 3T3 cells
T1 construct: expressed in transfected cells; host or cells: 3T3 cells
T1 sequence (P08581 25-1390): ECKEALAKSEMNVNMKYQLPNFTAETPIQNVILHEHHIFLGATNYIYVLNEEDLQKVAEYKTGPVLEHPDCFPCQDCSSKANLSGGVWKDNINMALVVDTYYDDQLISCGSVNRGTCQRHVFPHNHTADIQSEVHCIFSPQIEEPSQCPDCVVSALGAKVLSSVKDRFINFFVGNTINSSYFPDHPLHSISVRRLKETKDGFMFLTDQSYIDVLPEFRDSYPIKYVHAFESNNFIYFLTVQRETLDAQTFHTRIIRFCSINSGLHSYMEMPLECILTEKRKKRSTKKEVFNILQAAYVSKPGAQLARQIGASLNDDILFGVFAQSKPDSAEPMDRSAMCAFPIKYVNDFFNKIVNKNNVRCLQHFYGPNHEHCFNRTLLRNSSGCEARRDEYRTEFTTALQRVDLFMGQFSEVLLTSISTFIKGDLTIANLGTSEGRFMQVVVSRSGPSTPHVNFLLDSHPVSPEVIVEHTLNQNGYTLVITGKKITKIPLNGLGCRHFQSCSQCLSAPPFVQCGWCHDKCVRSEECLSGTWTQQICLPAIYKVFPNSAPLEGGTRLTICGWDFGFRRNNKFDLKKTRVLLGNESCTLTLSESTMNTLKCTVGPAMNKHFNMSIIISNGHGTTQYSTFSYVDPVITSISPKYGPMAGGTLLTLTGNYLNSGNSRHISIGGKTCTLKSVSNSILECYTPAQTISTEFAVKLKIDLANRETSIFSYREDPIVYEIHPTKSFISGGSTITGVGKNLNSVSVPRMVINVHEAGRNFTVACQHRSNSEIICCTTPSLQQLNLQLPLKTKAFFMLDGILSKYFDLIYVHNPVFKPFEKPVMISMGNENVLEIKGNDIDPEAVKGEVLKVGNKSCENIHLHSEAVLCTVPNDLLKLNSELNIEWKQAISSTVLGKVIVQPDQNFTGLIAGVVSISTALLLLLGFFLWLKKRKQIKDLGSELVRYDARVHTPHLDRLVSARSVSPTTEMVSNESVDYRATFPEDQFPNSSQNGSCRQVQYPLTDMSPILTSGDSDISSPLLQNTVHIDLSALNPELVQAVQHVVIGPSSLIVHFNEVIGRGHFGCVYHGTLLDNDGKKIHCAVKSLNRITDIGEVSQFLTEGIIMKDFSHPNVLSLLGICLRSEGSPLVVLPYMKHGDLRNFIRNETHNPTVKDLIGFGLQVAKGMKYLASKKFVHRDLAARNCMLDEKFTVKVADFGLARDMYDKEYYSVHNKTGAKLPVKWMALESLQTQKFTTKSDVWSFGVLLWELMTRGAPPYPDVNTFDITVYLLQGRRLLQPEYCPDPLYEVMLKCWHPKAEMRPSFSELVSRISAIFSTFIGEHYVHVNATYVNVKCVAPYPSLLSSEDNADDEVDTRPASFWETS
Method in brief: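 3T3 cells over-expressing human cMet seeded 10^5/well, pelleted and fixed with 0.1% glutaraldehyde 12 min at 37 °C. Blocked peptide-displaying phage bound 1 h at room temperature; after PBST wash, bound phage detected with HRP-conjugated anti-M13 antibody.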

cMet-Fc fusion protein = cMet-Fc fusion protein (Homo sapiens, UniProt P08581); experiment: Protein phage ELISA: peptide-displaying phage binding to soluble cMet-Fc versus TRAIL-Fc; settings: phage isolate; cMet-Fc vs. TRAIL-Fc
Chain of cMet-Fc fusion protein (P08581 25-307 limits assumed): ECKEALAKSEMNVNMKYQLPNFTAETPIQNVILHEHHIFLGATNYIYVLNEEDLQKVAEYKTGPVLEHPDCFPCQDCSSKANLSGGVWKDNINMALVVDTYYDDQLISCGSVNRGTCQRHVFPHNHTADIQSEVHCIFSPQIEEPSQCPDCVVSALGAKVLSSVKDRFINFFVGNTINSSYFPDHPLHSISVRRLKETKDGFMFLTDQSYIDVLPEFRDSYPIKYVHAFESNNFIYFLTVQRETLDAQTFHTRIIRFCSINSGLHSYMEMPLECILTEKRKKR
Chain of cMet-Fc fusion protein (P08581 with tags, fused parts or gaps limits assumed): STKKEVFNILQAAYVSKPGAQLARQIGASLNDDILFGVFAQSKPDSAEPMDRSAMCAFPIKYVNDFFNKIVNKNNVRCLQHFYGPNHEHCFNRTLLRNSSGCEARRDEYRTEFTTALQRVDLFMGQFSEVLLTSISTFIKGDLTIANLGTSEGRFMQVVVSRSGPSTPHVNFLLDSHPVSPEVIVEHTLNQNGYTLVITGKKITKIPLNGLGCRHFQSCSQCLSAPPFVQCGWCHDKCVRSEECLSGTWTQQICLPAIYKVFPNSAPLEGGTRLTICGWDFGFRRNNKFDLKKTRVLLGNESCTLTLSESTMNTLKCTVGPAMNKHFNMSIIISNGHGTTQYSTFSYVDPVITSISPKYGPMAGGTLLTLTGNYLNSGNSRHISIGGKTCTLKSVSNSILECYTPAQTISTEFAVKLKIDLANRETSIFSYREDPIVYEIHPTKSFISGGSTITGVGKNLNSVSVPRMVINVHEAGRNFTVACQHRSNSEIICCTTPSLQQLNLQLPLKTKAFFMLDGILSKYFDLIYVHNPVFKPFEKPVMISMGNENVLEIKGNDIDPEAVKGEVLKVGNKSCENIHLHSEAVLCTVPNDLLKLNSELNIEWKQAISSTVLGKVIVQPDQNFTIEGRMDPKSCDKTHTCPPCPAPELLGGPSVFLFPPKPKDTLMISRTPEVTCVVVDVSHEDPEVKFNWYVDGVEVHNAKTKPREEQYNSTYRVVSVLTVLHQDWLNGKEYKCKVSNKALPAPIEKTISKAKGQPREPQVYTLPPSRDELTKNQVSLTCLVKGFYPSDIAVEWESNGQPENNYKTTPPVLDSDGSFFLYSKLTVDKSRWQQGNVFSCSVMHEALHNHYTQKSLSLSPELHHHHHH
Method in brief: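 Plates coated with 0.5 μg/mL cMet-Fc or, as background, TRAIL-Fc, then blocked with 3% BSA in PBST. Peptide-displaying phage bound 2 h at room temperature. Detection with HRP-anti-M13 antibody.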

| WC ELISA [1] [fold over background] | Protein ELISA (cMet-Fc fusion protein) [fold over background] | Molecule |
| --- | --- | --- |
| 1.33 | 3.9 | AGFWDCGWMMQDCHMHGT (Synthetically generated cMet-binding peptide sequence) [SEQ ID NO: 045] |
| 1.23 | 4.0 | CC[C@H](C)[C@H](NC(=O)[C@H](CC(=O)O)NC(=O)[C@H](Cc1ccccc1)NC(=O)[C@H](Cc1ccccc1)NC(=O)[C@H](CCC(=O)O)NC(=O)[C@H](Cc1c[nH]c2ccccc12)NC(=O)[C@@H](NC(=O)[C@H](CCC(=O)O)NC(=O)[C@H](CCCCN)NC(=O)[C@H](CCC(N)=O)NC(=O)[C@H](C)NC(C)=O)[C@@H](C)O)C(=O)N[C@H](C(=O)N[C@@H](Cc1ccc(O)cc1)C(=O)NCC(=O)N[C@@H](CO)C(=O)NCC(=O)N[C@@H](Cc1c[nH]c2ccccc12)C(=O)N[C@@H](CCCCN)C(=O)N[C@@H](Cc1ccccc1)C(=O)N[C@@H](CC(N)=O)C(=O)N[C@@H](CO)C(=O)N1CCC[C@H]1C(=O)NCC(=O)NCC(=O)NCC(=O)N[C@@H](CCCCNC(=O)c1ccc2c(c1)C(=O)OC21c2ccc(O)cc2Oc2cc(O)ccc21)C(N)=O)C(C)C [SEQ ID NO: 466] |
| 1.30 | 7.7 | GSFAPCGWPSFAIDCIAEAP (Synthetically generated cMet-binding peptide sequence) [SEQ ID NO: 367] |
| 1.37 | 4.4 | CC[C@H](C)[C@H](NC(=O)[C@H](CC(C)C)NC(=O)[C@H](CCCCN)NC(=O)[C@H](CCC(=O)O)NC(=O)[C@@H](NC(=O)[C@@H](NC(=O)[C@@H](NC(=O)[C@H](C)NC(=O)[C@H](CO)NC(=O)[C@H](CC(C)C)NC(=O)[C@H](Cc1c[nH]c2ccccc12)NC(=O)[C@H](CC(=O)O)NC(=O)[C@@H]1CCCN1C(=O)[C@@H](NC(=O)[C@H](CCC(N)=O)NC(=O)[C@H](C)NC(C)=O)C(C)C)C(C)C)C(C)C)[C@@H](C)CC)C(=O)N[C@@H](CCC(=O)O)C(=O)N[C@@H](Cc1ccc(O)cc1)C(=O)NCC(=O)N[C@@H](CCSC)C(=O)N[C@@H](CCSC)C(=O)N[C@H](C(=O)NCC(=O)NCC(=O)NCC(=O)N[C@@H](CCCCNC(=O)c1ccc2c(c1)C(=O)OC21c2ccc(O)cc2Oc2cc(O)ccc21)C(N)=O)C(C)C [SEQ ID NO: 464] |
| 1.33 | 4.4 | GSYYDCREFQCNKPAP (Synthetically generated cMet-binding peptide sequence) [SEQ ID NO: 002] |
| 1.20 | 3.8 | CC[C@H](C)[C@H](NC(=O)[C@H](C)NC(=O)[C@@H](NC(=O)[C@H](Cc1ccccc1)NC(=O)[C@H](Cc1ccccc1)NC(=O)[C@H](CC(N)=O)NC(=O)[C@H](CCCNC(=N)N)NC(=O)[C@@H](NC(=O)[C@H](Cc1c[nH]cn1)NC(=O)[C@H](CC(=O)O)NC(=O)[C@@H](NC(=O)[C@H](Cc1c[nH]c2ccccc12)NC(=O)[C@H](CC(C)C)NC(=O)[C@H](CCC(=O)O)NC(=O)[C@H](Cc1ccccc1)NC(=O)CNC(=O)[C@H](CCC(N)=O)NC(=O)[C@H](C)NC(C)=O)C(C)C)[C@@H](C)O)[C@@H](C)CC)C(=O)N[C@@H](CO)C(=O)N1CCC[C@H]1C(=O)NCC(=O)NCC(=O)NCC(=O)N[C@@H](CCCCNC(=O)c1ccc2c(c1)C(=O)OC21c2ccc(O)cc2Oc2cc(O)ccc21)C(N)=O [SEQ ID NO: 469] |
| 1.80 | 3.0 | AQHMDPAEWDWFIRIYSPVVNP (Synthetically generated cMet-binding peptide sequence) [SEQ ID NO: 487] |
| 1.23 | 7.4 | AGYWDCKGPPHFFCEWHGT (Synthetically generated cMet-binding peptide sequence) [SEQ ID NO: 080] |

Further lines, the molecule ahead of its results:

| Molecule | WC ELISA [1] [fold over background] | Protein ELISA (cMet-Fc fusion protein) [fold over background] |
| --- | --- | --- |
| GSQQICDRKEYRFQACLSDAP (Synthetically generated cMet-binding peptide sequence) [SEQ ID NO: 371] | 1.40 | 3.4 |
| GSRFHCWQGDLMQTYCMPMAP (Synthetically generated cMet-binding peptide sequence) [SEQ ID NO: 376] | 1.30 | 3.0 |
| GSEFECTGWPEFRCYEYAP (Synthetically generated cMet-binding peptide sequence) [SEQ ID NO: 100] | 1.20 | 8.4 |
| CSCC[C@H](NC(=O)[C@H](CC(=O)O)NC(=O)[C@H](C)NC(=O)[C@H](CC(=O)O)NC(=O)[C@H](CCC(N)=O)NC(=O)[C@H](CC(C)C)NC(=O)[C@H](CCC(=O)O)NC(=O)[C@H](Cc1ccc(O)cc1)NC(=O)[C@H](Cc1ccc(O)cc1)NC(=O)[C@@H]1CCCN1C(=O)[C@H](CCC(N)=O)NC(=O)[C@H](C)NC(C)=O)C(=O)N[C@@H](CC(C)C)C(=O)N[C@@H](CC(C)C)C(=O)N[C@H](C(=O)N[C@H](C(=O)N[C@@H](C)C(=O)N[C@@H](CC(C)C)C(=O)N[C@@H](CC(C)C)C(=O)N[C@@H](CO)C(=O)N[C@H](C(=O)NCC(=O)NCC(=O)NCC(=O)NCC(=O)N[C@@H](CCCCNC(=O)c1ccc2c(c1)C(=O)OC21c2ccc(O)cc2Oc2cc(O)ccc21)C(N)=O)[C@@H](C)O)C(C)C)C(C)C [SEQ ID NO: 458] | 1.20 | 6.1 |
| AGAFFCSGPPTFMCSLYGT (Synthetically generated cMet-binding peptide sequence) [SEQ ID NO: 098] | 1.27 | 6.2 |
| AGHGTCRGWPTFECIYFGT (Synthetically generated cMet-binding peptide sequence) [SEQ ID NO: 064] | 1.40 | 6.0 |
| AGHYWCAGPPTFICMGPGT (Synthetically generated cMet-binding peptide sequence) [SEQ ID NO: 062] | 1.40 | 10.2 |
| AGYFECKGPPTFECWLSGT (Synthetically generated cMet-binding peptide sequence) [SEQ ID NO: 060] | 1.43 | 8.1 |
| CC(=O)N[C@@H](C)C(=O)N[C@@H](CCC(N)=O)C(=O)N[C@@H](CCC(N)=O)C(=O)N[C@@H](C)C(=O)N[C@@H](CO)C(=O)N[C@@H](CCCNC(=N)N)C(=O)N[C@@H](Cc1ccccc1)C(=O)N[C@H](C(=O)N[C@@H](Cc1ccccc1)C(=O)N[C@H](C(=O)N[C@@H](CC(=O)O)C(=O)NCC(=O)N[C@@H](CC(=O)O)C(=O)N[C@@H](CO)C(=O)N[C@@H](Cc1ccc(O)cc1)C(=O)N[C@@H](Cc1c[nH]c2ccccc12)C(=O)N[C@@H](Cc1c[nH]c2ccccc12)C(=O)N[C@@H](Cc1ccccc1)C(=O)N[C@@H](CCC(=O)O)C(=O)N[C@@H](CC(=O)O)C(=O)N[C@@H](Cc1ccccc1)C(=O)NCC(=O)NCC(=O)NCC(=O)N[C@@H](CCCCNC(=O)c1ccc2c(c1)C(=O)OC21c2ccc(O)cc2Oc2cc(O)ccc21)C(N)=O)[C@@H](C)O)[C@@H](C)O [SEQ ID NO: 449] | 1.17 | 7.0 |
